Test results taken from patent publication US20030032609A1 (Harvard, published 2003).

Target: T1, aryl hydrocarbon receptor nuclear translocator (ARNT) (human, UniProt P27540 1-789, limits assumed)
T1 construct: also called hARNT
Assay: heterodimer formation by deletion mutant; method not named

T1 sequence (P27540 whole entry): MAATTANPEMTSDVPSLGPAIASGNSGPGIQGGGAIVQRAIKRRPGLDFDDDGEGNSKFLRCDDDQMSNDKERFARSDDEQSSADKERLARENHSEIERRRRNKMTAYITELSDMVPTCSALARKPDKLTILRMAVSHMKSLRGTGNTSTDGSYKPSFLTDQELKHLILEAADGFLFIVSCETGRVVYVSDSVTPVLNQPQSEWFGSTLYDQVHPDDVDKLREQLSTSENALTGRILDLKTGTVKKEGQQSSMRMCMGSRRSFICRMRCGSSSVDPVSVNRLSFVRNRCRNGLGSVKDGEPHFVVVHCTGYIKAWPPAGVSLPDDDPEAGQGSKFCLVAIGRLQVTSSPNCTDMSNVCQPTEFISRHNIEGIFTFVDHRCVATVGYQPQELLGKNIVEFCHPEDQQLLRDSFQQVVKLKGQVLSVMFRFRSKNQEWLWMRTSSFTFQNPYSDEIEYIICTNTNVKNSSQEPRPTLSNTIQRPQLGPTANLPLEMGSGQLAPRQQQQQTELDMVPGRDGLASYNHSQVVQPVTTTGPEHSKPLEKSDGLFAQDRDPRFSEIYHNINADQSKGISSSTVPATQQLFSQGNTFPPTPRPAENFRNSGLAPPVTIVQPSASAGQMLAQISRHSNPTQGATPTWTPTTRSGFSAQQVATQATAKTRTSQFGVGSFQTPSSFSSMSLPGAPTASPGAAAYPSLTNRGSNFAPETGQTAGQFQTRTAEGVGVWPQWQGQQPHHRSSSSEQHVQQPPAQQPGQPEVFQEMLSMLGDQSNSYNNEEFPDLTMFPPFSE

B1: EPAS1 polypeptide lacking amino acids 486-639 of SEQ ID NO: 6 (other)
chain: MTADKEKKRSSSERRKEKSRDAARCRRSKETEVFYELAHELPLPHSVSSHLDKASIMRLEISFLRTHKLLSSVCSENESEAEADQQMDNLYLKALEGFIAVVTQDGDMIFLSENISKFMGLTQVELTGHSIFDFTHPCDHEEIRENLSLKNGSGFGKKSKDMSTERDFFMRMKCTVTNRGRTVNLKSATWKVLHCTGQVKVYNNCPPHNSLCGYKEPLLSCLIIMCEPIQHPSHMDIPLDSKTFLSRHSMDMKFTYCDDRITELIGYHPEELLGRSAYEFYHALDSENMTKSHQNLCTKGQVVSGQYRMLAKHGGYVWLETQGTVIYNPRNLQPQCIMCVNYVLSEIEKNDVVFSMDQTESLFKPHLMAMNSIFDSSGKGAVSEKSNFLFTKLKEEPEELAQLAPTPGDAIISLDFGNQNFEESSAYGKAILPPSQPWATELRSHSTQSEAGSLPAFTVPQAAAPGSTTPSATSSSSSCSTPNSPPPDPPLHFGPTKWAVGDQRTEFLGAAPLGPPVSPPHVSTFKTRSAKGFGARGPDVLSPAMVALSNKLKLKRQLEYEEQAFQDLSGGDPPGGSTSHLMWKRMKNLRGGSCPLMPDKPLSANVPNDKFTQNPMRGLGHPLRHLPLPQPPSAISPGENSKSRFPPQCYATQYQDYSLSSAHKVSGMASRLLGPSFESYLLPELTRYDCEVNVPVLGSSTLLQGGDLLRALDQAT
notes: Internal deletion as worded; The C-terminal end, 870, is derived from '1-690' plus '180 C-terminal amino acids'; also called dominant negative EPAS1 mutant
  binding result: binds
